Source: patent US20060292657A1, “Phex substrates and methods using same” (priority 2003, published 2006)

Legend:
Test in all cases: Kinetic parameters for hydrolysis of internally quenched fluorogenic peptides by secPHEX
Assay type in all cases: biochemical, human
Settings in all cases: other: 37° C., 10 mM Bis-Tris buffer pH 5.5, 150 mM NaCl
[1] = substrate: CC(C)C[C@H](NC(=O)[C@H](Cc1c[nH]c2ccccc12)NC(=O)[C@H](C)NC(=O)c1ccccc1N)C(=O)N[C@@H](CC(=O)O)C(=O)N[C@@H](CO)C(=O)NCC(=O)N[C@H](C(=O)N[C@@H](CCC(N)=O)C(=O)NCCNc1ccc([N+](=O)[O-])cc1[N+](=O)[O-])C(C)C
Procedure: (§1) The human recombinant secPHEX was obtained following the procedure previously described (17, WO 00/50580). Purified secPHEX concentration was determined using the Bradford method (DC protein assay kit; Bio-Rad, Mississauga, ON, Canada). Membrane-bound recombinant human PHEX was expressed in LLC-PK1 cells (17, (WO 00/50580)) and membranes were prepared essentially as described by Guo et al. (34). Briefly, transfected cells resuspended in lysis buffer (150 mM NaCl, 20 mM Tris.HCl, pH 7.6) were disrupted by sonication. Cell debris were removed by centrifugation at 300 g for 15 min at 4 °C. Membranes were collected by centrifugation at 30,000 g for 50 min and solubilized for 2h with 1% n-dodecyl-β-D-maltoside in lysis buffer. Insoluble material was pelleted by centrifugation at 10,000 g for 15 min and protein concentrations of the supernatant determined using the Bradford method described above. PHEX amounts were evaluated by immunoblotting as described previously (17). NEP expression and purification were performed as described previously (36).
(§2) The hydrolysis of the IQFPs, at 37° C., in 10 mM Bit-Tris buffer pH 5.5 (0.35 to 1.0 ml final volume) containing 150 mM NaCl, was continuously followed measuring the fluorescence at γem=420 nm and γex=320 nm in a Hitachi F-2000™ spectrofluorometer. The cuvefte containing the buffer and the substrate was placed in a thermostatically controlled cell compartment for 5 min before the addition of the enzyme and the increase in fluorescence with time was continuously recorded for 5-10 min. The enzyme concentration for initial rate determination was chosen at a level intended to hydrolyze less than 5% of the substrate present. The slope was converted into micromoles of substrate hydrolyzed per min based on a calibration curve obtained from complete hydrolysis of each peptide. The inner-filter effect was corrected using an empirical equation as previously described (43). The kinetic parameters Km and kcat were calculated by the non-linear regression data analysis Grafit program (42). The kcat/Km values were calculated as the ratio of these two determined parameters. The apparent second order rate constant kcat/Km (*kIt/Km) was determined under pseudo first-order conditions, where [S]<<Km. These determinations were performed in two different substrate concentrations and the errors were less than 5% for any obtained value.
(§3) To determine the position of cleavage in peptides of the IQFPs combinatorial libraries, the products resulting from hydrolysis by secPHEX were submitted to N-terminal amino acid sequencing in a PPSQ-23protein sequencer (Shimadzu Tokyo, Japan). The scissile bonds in the IQFPs secPHEX substrates derived from PTHrP107-139, FGF-23and MEPE were determined by amino acid sequencing and by MALDI-TOF™ mass spectrometry (TofSpec-E™, Micromass, Manchester, U.K.) after isolation of the fragments resulting from the hydrolysis by secPHEX by analytical HPLC.
(§4) The assays were performed at 37° C., in 10 mM Bis-Tris buffer pH 5.5, containing 150 mM NaCl. Measurements were made as described under the heading “Experimental Procedures” above. Cleavage sites are indicated as arrows (↓). The standard deviations of the kinetic constants were less than 5%.
(§5) The assays were performed at 37° C., in 10 mM Bis-Tris buffer pH 5.5, containing 150 mM NaCl. Measurements were made as described under the heading “Experimental Procedures” above. Cleavage sites are indicated by arrows (↓). The standard deviations of the kinetic constants were less than 5%.
(§6) The assays were. performed at 37° C., in 10 mM Bis-Tris buffer pH 5.5, containing 150 mM NaCl. Measurements were made as described under the heading “Experimental Procedures” above. Cleavage sites are indicated by arrows (↓). The standard deviations of the kinetic constants were less than 5%.
(§7) The assays were performed at 37° C., in 10 mM Bis-Tris buffer pH 5.5, containing 150 mM NaCl. Measurements were made as described under “Experimental Procedures”. […]

[2] = substrate: C[C@H](NC(=O)[C@H](CO)NC(=O)[C@H](CCCNC(=N)N)NC(=O)[C@@H](NC(=O)[C@H](Cc1c[nH]cn1)NC(=O)[C@H](CCCNC(=N)N)NC(=O)[C@H](CCCNC(=N)N)NC(=O)c1ccccc1N)[C@@H](C)O)C(=O)N[C@@H](CCC(=O)O)C(=O)N[C@@H](CC(=O)O)C(=O)N[C@@H](CC(=O)O)C(=O)N[C@@H](CO)C(=O)N[C@@H](CCC(=O)O)C(=O)N[C@@H](CCCNC(=N)N)C(=O)N[C@@H](CCC(N)=O)C(=O)NCCNc1ccc([N+](=O)[O-])cc1[N+](=O)[O-]
Procedure: as §1, §2, §3, §4, §5, §6, §7

[3] = substrate: NC(=O)CC[C@H](NC(=O)[C@H](CO)NC(=O)CNC(=O)[C@H](CO)NC(=O)[C@H](CC(=O)O)NC(=O)[C@H](CO)NC(=O)[C@H](CO)NC(=O)c1ccccc1N)C(=O)NCCNc1ccc([N+](=O)[O-])cc1[N+](=O)[O-]
Procedure: as §1, §2, §3, §4, §5, §6, §7

[4] = substrate: Nc1ccccc1C(=O)NCC(=O)N[C@@H](Cc1ccccc1)C(=O)N[C@@H](CO)C(=O)N[C@@H](CC(=O)O)C(=O)N[C@@H](Cc1ccc(O)cc1)C(=O)N[C@@H](CCCCNc1ccc([N+](=O)[O-])cc1[N+](=O)[O-])C(=O)O
Procedure: as §1, §2, §3, §4, §5, §6, §7

B1: human recombinant secPHEX (Homo sapiens) (protein)
chain: SLQAKQEYCLKPECIEAAAAILSKVNLSVDPCDNFFRFACDGWISNNPIPEDMPSYGVYPWLRHNVDLKLKELLEKSISRRRDTEAIQKAKILYSSCMNEKAIEKADAKPLLHILRHSPFRWPVLESNIGPEGVWSERKFSLLQTLATFRGQYSNSVFIRLYVSPDDKASNEHILKLDQATLSLAVREDYLDNSTEAKSYRDALYKFMVDTAVLLGANSSRAEHDMKSVLRLEIKIAEIMIPHENRTSEAMYNKMNISELSAMIPQFDWLGYIKKVIDTRLYPHLKDISPSENVVVRVPQYFKDLFRILGSERKKTIANYLVWRMVYSRIPNLSRRFQYRWLEFSRVIQGTTTLLPQWDKCVNFIESALPYVVGKMFVDVYFQEDKKEMMEELVEGVRWAFIDMLEKENEWMDAGTKRKAKEKARAVLAKVGYPEFIMNDTHVNEDLKAIKFSEADYFGNVLQTRKYLAQSDFFWLRKAVPKTEWFTNPTTVNAFYSASTNQIRFPAGELQKPFFWGTEYPRSLSYGAIGVIVGHEFTHGFDNNGRKYDKNGNLDPWWSTESEEKFKEKTKCMINQYSNYYWKKAGLNVKGKRTLGENIADNGGLREAFRAYRKWINDRRQGLEEPLLPGITFTNNQLFFLSYAHVRCNSYRPEAAREQVQIGAHSPPQFRVNGAISNFEEFQKAFNCPPNSTMNRGMDSCRLW
notes: pure soluble form of PHEX (secPHEX); made in house
Km [1]: 1.5 µM
kcat [1]: 0.04 s⁻¹
kcat/Km [1]: 26700 M⁻¹ s⁻¹
Km [2]: 3.0 µM
kcat [2]: 0.2 s⁻¹
kcat/Km [2]: 66700 M⁻¹ s⁻¹
Km [3]: 31.6 µM
kcat [3]: 0.2 s⁻¹
kcat/Km [3]: 7100 M⁻¹ s⁻¹
Km [4]: 3.0 µM
kcat [4]: 0.5 s⁻¹
kcat/Km [4]: 166700 M⁻¹ s⁻¹
